The record followed here is paper PMC11118385 (bioRxiv, 2024).

Changes are numbered by the printed parent chain. Numbers in names are those of the source.

Data set [1] concerns the molecule itself. Nature of the data set: cryo-EM structure.
Data set [2] concerns the target human mitochondrial Hsp70 (mortalin) R126W mutant (human, UniProt P38646 47-679, R126W). Nature of the data set: cryo-EM structure.

The stoichiometry N is a count of units in the complex or per binding partner.

Sequence of human mitochondrial Hsp70 (mortalin) R126W mutant (P38646 47-679 R126W): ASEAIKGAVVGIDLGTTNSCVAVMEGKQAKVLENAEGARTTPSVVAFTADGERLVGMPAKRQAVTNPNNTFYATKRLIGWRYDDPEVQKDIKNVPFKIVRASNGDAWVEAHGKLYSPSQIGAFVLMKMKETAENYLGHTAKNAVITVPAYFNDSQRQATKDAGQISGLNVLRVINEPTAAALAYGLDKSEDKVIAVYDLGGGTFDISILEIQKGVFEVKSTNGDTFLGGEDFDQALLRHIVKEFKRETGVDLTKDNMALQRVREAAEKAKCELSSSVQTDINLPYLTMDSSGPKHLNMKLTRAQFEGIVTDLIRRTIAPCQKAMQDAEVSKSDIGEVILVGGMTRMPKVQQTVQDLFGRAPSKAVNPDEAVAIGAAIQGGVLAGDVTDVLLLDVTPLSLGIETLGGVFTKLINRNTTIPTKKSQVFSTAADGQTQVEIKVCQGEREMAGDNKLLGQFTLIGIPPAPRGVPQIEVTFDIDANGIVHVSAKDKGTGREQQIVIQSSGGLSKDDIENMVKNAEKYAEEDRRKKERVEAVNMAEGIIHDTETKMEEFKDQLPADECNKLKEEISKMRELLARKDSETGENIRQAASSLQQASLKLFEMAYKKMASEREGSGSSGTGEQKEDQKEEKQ

B1: human GrpEL1 (wild type) (natural protein)
chain: CTATKQKNSGQNLEEDMGQSEQKADPPATEKTLLEEKVKLEEQLKETVEKYKRALADTENLRQRSQKLVEEAKLYGIQAFCKDLLEVADVLEKATQCVPKEEIKDDNPHLKNLYEGLVMTEVQIQKVFTKHGLLKLNPVGAKFDPYEHEALFHTPVEGKEPGTVALVSKVGYKLHGRTLRPALVGVVKEA
Turning to B1, the “stoichiometry N” value in data set [1] was 2.

B2: human GrpEL1 Y173A mutant (natural protein)
chain: B1 chain with Y146A
For B2, in data set [2], the binding result is “binds”.
